Measurements from paper doi:10.1101/2021.12.16.473085 (2021).

What was measured:
Assay in all cases: SPR
hGH S51D = molecular target: hGH S51D
hGH R178Y = molecular target: hGH R178Y
hGH Q46R = molecular target: hGH Q46R
hGH R178F = molecular target: hGH R178F
hGH Q22H = molecular target: hGH Q22H
hGH E65Y = molecular target: hGH E65Y
hGH K41R = molecular target: hGH K41R

B1: human Growth Hormone Receptor (hGHR) (receptor)
chain: FSGSEATAAILSRAPWSLQSVNPGLKTNSSKEPKFTKCRSPERETFSCHWTDEVHHGTKNLGPIQLFYTRRNTQEWTQEWKECPDYVSAGENSCYFNSSFTSIWIPYCIKLTSNGGTVDEKCFSVDEIVQPDPPIALNWTLLNVSLTGIHADIQVRWEAPRNADIQKGWMVLEYELQYKEVNETKWKMMDPILTTSVPVYSLKVDKEYEVRVRSKQRNSGNYGEFSEVLYVTLPQMSQFTCEEDFYFPWLLIIIFGIFGLTVMLFVFLFSKQQRIKMLILPPVPVPKIKGIDPDLLKEGKLEEVNTILAIHDSYKPEFHSDDSWVEFIELDIDEPDEKTEESDTDRLLSSDHEKSHSNLGVKDGDSGRTSCCEPDILETDFNANDIHEGTSEVAQPQRLKGEADLLCLDQKNQNNSPYHDACPATQQPSVIQAEKNKPQPLPTEGAESTHQAAHIQLSNPSSLSNIDFYAQVSDITPAGSVVLSPGQKNKAGMSQCDMHPEMVSLCQENFLMDNAYFCEADAKKCIPVAPHIKVESHIQPSLNQEDIYITTESLTTAAGRPGTGEHVPGSEMPVPDYTSIHIVQSPQGLILNATALPLPDKEFLSSCGYVSTDQLNKIMP
B1 was tested, and the Kd (hGH S51D) was 0.6 nM, the koff (hGH S51D) was 0.0007 s⁻¹ and the Kd (hGH R178Y) was 20 nM. The koff (hGH R178Y) was 0.006 s⁻¹, the Kd (hGH Q46R) was 40 nM and the koff (hGH Q46R) was 0.0006 s⁻¹. The Kd (hGH R178F) was 30 nM, the koff (hGH R178F) was 0.008 s⁻¹ and the Kd (hGH Q22H) was 8 nM. It also gave a koff (hGH Q22H) of 0.0004 s⁻¹, a Kd (hGH E65Y) of 0.4 nM and a koff (hGH E65Y) of 0.0003 s⁻¹. For the same binder, the Kd (hGH K41R) was 20 nM and the koff (hGH K41R) was 0.001 s⁻¹.
